Measurements reported in publication PMC4583379.

Legend:
[1] = anti-PilA western, cell-wall extracts, stationary phase; settings: glycan lost; control: wild type NEM316
[2] = anti-PilA western, supernatants of nisin-induced secreted PilA; settings: glycan lost; control: wild-type PilAΔCWA
[3] = anti-PilA western, cell-wall extracts, exponential phase; settings: glycan lost; control: wild type NEM316
[4] = flow cytometry with anti-PilA antiserum; settings: glycan lost; control: wild type NEM316
[5] = anti-PilA western, membrane extracts, exponential phase; settings: glycan lost; control: wild type NEM316

B1: PilA (Gbs1478), PI-2a pilus tip adhesin: N427Q (protein)
parent chain: MRKYQKFSKILTLSLFCLSQIPLNTNVLGESTVPENGAKGKLVVKKTDDQNKPLSKATFVLKTTAHPESKIEKVTAELTGEATFDNLIPGDYTLSEETAPEGYKKTNQTWQVKVESNGKTTIQNSGDKNSTIGQNHEELDKQYPPTGIYEDTKESYKLEHVKGSVPNGKSEAKAVNPYSSEGEHIREIPEGTLSKRISEVGDLAHNKYKIELTVSGKTIVKPVDKQKPLDVVFVLDNSNSMNNDGPNFQRHNKAKKAAEALGTAVKDILGANSDNRVALVTYGSDIFDGRSVDVVKGFKEDDKYYGLQTKFTIQTENYSHKQLTNNAEEIIKRIPTEAPRAKWGSTTNGLTPEQQKQYYLSKVGETFTMKAFMEADDILSQVDRNSQKIIVHITDGVPTRSYAINNFKLGASYESQFEQMKKNGYLNKSNFLLTDKPEDIKGNGESYFLFPLDSYQTQIISGNLQKLHYLDLNLNYPKGTIYRNGPVREHGTPTKLYINSLKQKNYDIFNFGIDISAFRQVYNEDYKKNQDGTFQKLKEEAFELSDGEITELMKSFSSKPEYYTPIVTSSDASNNEILSKIQQQFEKVLTKENSIVNGTIEDPMGDKINLQLGNGQTLQPSDYTLQGNDGSIMKDSIATGGPNNDGGILKGVKLEYIKNKLYVRGLNLGEGQKVTLTYDVKLDDSFISNKFYDTNGRTTLNPKSEDPNTLRDFPIPKIRDVREYPTITIKNEKKLGEIEFTKVDKDNNKLLLKGATFELQEFNEDYKLYLPIKNNNSKVVTGENGKISYKDLKDGKYQLIEAVSPKDYQKITNKPILTFEVVKGSIQNIIAVNKQISEYHEEGDKHLITNTHIPPKGIIPMTGGKGILSFILIGGSMMSIAGGIYIWKRYKKSSDISREKD
no change: stability_or_folding [1] | stability_or_folding [2] | expression_or_secretion [3] | expression_or_secretion [4] | expression_or_secretion [5]

B2: PilA (Gbs1478), PI-2a pilus tip adhesin: N597Q (protein)
parent chain: MRKYQKFSKILTLSLFCLSQIPLNTNVLGESTVPENGAKGKLVVKKTDDQNKPLSKATFVLKTTAHPESKIEKVTAELTGEATFDNLIPGDYTLSEETAPEGYKKTNQTWQVKVESNGKTTIQNSGDKNSTIGQNHEELDKQYPPTGIYEDTKESYKLEHVKGSVPNGKSEAKAVNPYSSEGEHIREIPEGTLSKRISEVGDLAHNKYKIELTVSGKTIVKPVDKQKPLDVVFVLDNSNSMNNDGPNFQRHNKAKKAAEALGTAVKDILGANSDNRVALVTYGSDIFDGRSVDVVKGFKEDDKYYGLQTKFTIQTENYSHKQLTNNAEEIIKRIPTEAPRAKWGSTTNGLTPEQQKQYYLSKVGETFTMKAFMEADDILSQVDRNSQKIIVHITDGVPTRSYAINNFKLGASYESQFEQMKKNGYLNKSNFLLTDKPEDIKGNGESYFLFPLDSYQTQIISGNLQKLHYLDLNLNYPKGTIYRNGPVREHGTPTKLYINSLKQKNYDIFNFGIDISAFRQVYNEDYKKNQDGTFQKLKEEAFELSDGEITELMKSFSSKPEYYTPIVTSSDASNNEILSKIQQQFEKVLTKENSIVNGTIEDPMGDKINLQLGNGQTLQPSDYTLQGNDGSIMKDSIATGGPNNDGGILKGVKLEYIKNKLYVRGLNLGEGQKVTLTYDVKLDDSFISNKFYDTNGRTTLNPKSEDPNTLRDFPIPKIRDVREYPTITIKNEKKLGEIEFTKVDKDNNKLLLKGATFELQEFNEDYKLYLPIKNNNSKVVTGENGKISYKDLKDGKYQLIEAVSPKDYQKITNKPILTFEVVKGSIQNIIAVNKQISEYHEEGDKHLITNTHIPPKGIIPMTGGKGILSFILIGGSMMSIAGGIYIWKRYKKSSDISREKD
no change: stability_or_folding [1] | stability_or_folding [2] | expression_or_secretion [3] | expression_or_secretion [4] | expression_or_secretion [5]

B3: PilA (Gbs1478), PI-2a pilus tip adhesin: N427Q-N597Q (protein)
parent chain: MRKYQKFSKILTLSLFCLSQIPLNTNVLGESTVPENGAKGKLVVKKTDDQNKPLSKATFVLKTTAHPESKIEKVTAELTGEATFDNLIPGDYTLSEETAPEGYKKTNQTWQVKVESNGKTTIQNSGDKNSTIGQNHEELDKQYPPTGIYEDTKESYKLEHVKGSVPNGKSEAKAVNPYSSEGEHIREIPEGTLSKRISEVGDLAHNKYKIELTVSGKTIVKPVDKQKPLDVVFVLDNSNSMNNDGPNFQRHNKAKKAAEALGTAVKDILGANSDNRVALVTYGSDIFDGRSVDVVKGFKEDDKYYGLQTKFTIQTENYSHKQLTNNAEEIIKRIPTEAPRAKWGSTTNGLTPEQQKQYYLSKVGETFTMKAFMEADDILSQVDRNSQKIIVHITDGVPTRSYAINNFKLGASYESQFEQMKKNGYLNKSNFLLTDKPEDIKGNGESYFLFPLDSYQTQIISGNLQKLHYLDLNLNYPKGTIYRNGPVREHGTPTKLYINSLKQKNYDIFNFGIDISAFRQVYNEDYKKNQDGTFQKLKEEAFELSDGEITELMKSFSSKPEYYTPIVTSSDASNNEILSKIQQQFEKVLTKENSIVNGTIEDPMGDKINLQLGNGQTLQPSDYTLQGNDGSIMKDSIATGGPNNDGGILKGVKLEYIKNKLYVRGLNLGEGQKVTLTYDVKLDDSFISNKFYDTNGRTTLNPKSEDPNTLRDFPIPKIRDVREYPTITIKNEKKLGEIEFTKVDKDNNKLLLKGATFELQEFNEDYKLYLPIKNNNSKVVTGENGKISYKDLKDGKYQLIEAVSPKDYQKITNKPILTFEVVKGSIQNIIAVNKQISEYHEEGDKHLITNTHIPPKGIIPMTGGKGILSFILIGGSMMSIAGGIYIWKRYKKSSDISREKD
no change: expression_or_secretion [3] | expression_or_secretion [4] | expression_or_secretion [5]
